B1: AIM2^PYD filament construct with ~20 a.a. of the unstructured linker (residues 1-117), untagged (domain or fragment, human, UniProt O14862 1-117, looked up)
chain: MESKYKEILLLTGLDNITDEELDRFKFFLSDEFNIATGKLHTANRIQVATLMIQNAGAVSAVMKTIRIFQKLNYMLLAKRLQEEKEKVDKQYKSVTKPKPLSQAEMSPAASAAIRND
notes: AIM2 (absent in melanoma 2), human, residues 1-117: PYD plus ~20 a.a. of the unstructured linker; Helical filament; 2.75 uM protein cleaved for 30 min with 6 uM TEVp before freezing; also called AIM2^IRND; source: MBP cleaved with TEVp; not shown: MBP, N-terminal, cleaved
B2: AIM2^PYD (residues 1-94) S94C, fluorophore-labelled (domain or fragment, human, UniProt O14862 1-94, looked up)
chain: MESKYKEILLLTGLDNITDEELDRFKFFLSDEFNIATGKLHTANRIQVATLMIQNAGAVSAVMKTIRIFQKLNYMLLAKRLQEEKEKVDKQYKC
modifications: fluorophore label (Alexa488 or Dylight550; FRET donor or acceptor); S94C for fluorophore labeling
notes: AIM2, human, pyrin domain, residues 1-94; Polymerisation is triggered by cleaving MBP with TEVp; the protein stands as nascent monomer or as preassembled filament; also called MBP-AIM2^PYD; source: MBP cleaved with TEVp in the assay; not shown: MBP, N-terminal, cleaved

Assays:
[1] = biological target: the molecule itself; experiment: cryo-EM structure; helical reconstruction of the untagged AIM2 (1-117) filament; 2.75 uM protein cleaved for 30 min with 6 uM TEVp
[2] = biological target: the molecule itself; experiment: confocal fluorescence microscopy of fluor-labelled recombinant filaments; two differentially labelled (Alexa488, Dylight550) MBP-tagged PYD populations mixed at 1:1 ratio (1 uM each), polymerisation triggered by cleaving MBP with TEVp

Row | Protein | binding result [1] | binding result [2]
1 | B1 | binds | –
2 | B2 | – | binds
